Key:
Yeast Hsp90 = target: T1, Yeast Hsp90 (Saccharomyces cerevisiae, UniProt P02829); assay: Malachite green colorimetric ATPase assay, yeast Hsp90; format: biochemical
T1 construct: made in house; host or cells: E. coli
Text: The activity of enzymes that release inorganic phosphate can be measured using the reaction of the cationic dye, malachite green, with a phosphomolybdate complex to generate a blue-green colour with an absorbance maximum at 610 nm (Cogan, E. B. et al (1999) Anal. Biochem. 271, 29-35; Baykov, A. A. et al (1988) Anal. Biochem. 171, 266-270; Harder, K. W. et al (1994) Biochem. J. 298, 395-401; Maehama, T. et al (2000) Anal. Biochem. 279, 248-250) as described above.
Chemicals are of the highest purity commercially available and all aqueous solutions are made up in AR water. • 1. For the full length Aha1, an assay buffer of 45 mM Tris-HCl pH 7.5, 9 mM KCl, 3 mM MgCl may be used. For the C-and N-terminal domain of Aha1 or the Hch1 homologue, an 20 mM Tris-HCl pH 7.5, 4 mM KCl, 1.2 mM MgCl. An assay buffer of 100 mM Tris-HCl, pH 7.4, 20 mM KCl, 6 mM MgCl2 may also be used. Stored at 4° C. • 2. 0.0812% (w/v) malachite green (Sigma M 9636). Stored at room temperature. • 3. […]

[1] = target: Hsp90 (species not stated; FIGS. 4 to 6)
[2] = target: Human hsp90 beta protein (human) (UniProt P08238)
Human Hsp90 = target: T2, Human Hsp90 (Homo sapiens, UniProt P08238); assay: Stimulation of human HSP90 ATPase activity by Aha1; format: biochemical
T2 construct: made in house; host or cells: E. coli BL21 (DE3) pLysS (stated for Aha1 only)
Protocol: Each value is the mean±Sd of n=4 ATP at 0.6 mM.
Each point is the mean±SD of n=4 ATP at 0.6 mM.
Chemicals are of the highest purity commercially available and all aqueous solutions are made up in AR water. • 1. For the full length Aha1, an assay buffer of 45 mM Tris-HCl pH 7.5, 9 mM KCl, 3 mM MgCl may be used. For the C-and N-terminal domain of Aha1 or the Hch1 homologue, an 20 mM Tris-HCl pH 7.5, 4 mM KCl, 1.2 mM MgCl. An assay buffer of 100 mM Tris-HCl, pH 7.4, 20 mM KCl, 6 mM MgCl2 may also be used. Stored at 4° C. • 2. 0.0812% (w/v) malachite green (Sigma M 9636). Stored at room temperature. • 3. 2.32% (w/v) polyvinyl alcohol USP (Sigma P 1097). Stored at room temperature. The polyvinyl alcohol dissolves in boiling water with difficulty and stirring for 2-3 h is required • 4. 5.72% (w/v) ammonium molybdate in 6M hydrochloric acid. Stored at room temperature. • 5. […] Stored at room temperature. • 6. ATP, disodium salt, special quality (Boehringer Mannheim 519979). Stored at 4° C. • 7. […]
Initially, the reagent was a dark brown colour, but after standing at room temperature for about 2 h, this became a golden yellow colour and was ready for use. […]
To stop the incubation, 80 μl of the malachite green reagent was added to each well and the plate shaken again. […] The absorbance at 620 nm was measured using a suitable plate reader (e.g. Victor^2, PerkinElmer Life Sciences). […]

Hsp90 = target: T3, Hsp90 (Saccharomyces cerevisiae, UniProt P02829); assay: Effect of Aha1, Aha1 domains or Hch1 concentration on geldanamycin dependent ATPase activity of Hsp90; format: biochemical; details: for Effect on Hsp90 ATPase activity (in words): FIG. 5 and 6, 20 mM Tris pH 7.5, 4 mM KCl, 1.2 mM MgCl2
T3 construct: made in house; host or cells: E. coli (if the yeast protein of the reagent list)
Protocol: Half activation is shown to be at […] Aha1. 0.2 μM Aha1 was used in a buffer consisting of 45 mM Tris pH 7.5, 9 mM KCl, 3 mM MgCl2.
2 μM Aha1 was used in a buffer consisting of 20 mM Tris pH 7.5, 4 mM KCl, 1.2 mM MgCl2.
Hch1 and truncated Aha1 polypeptides corresponding to the N and C terminal domains of full-length Aha1 were expressed and purified as described above. The N terminal domain polypeptide (nAha1) consisted of 162 aa from the N terminal MVVNNP to GNDIQV. The C terminal domain polypeptide (cAha1) consisted of the remainder of the Aha1 sequence.
Chemicals are of the highest purity commercially available and all aqueous solutions are made up in AR water. • 1. For the full length Aha1, an assay buffer of 45 mM Tris-HCl pH 7.5, 9 mM KCl, 3 mM MgCl may be used. For the C-and N-terminal domain of Aha1 or the Hch1 homologue, an 20 mM Tris-HCl pH 7.5, 4 mM KCl, 1.2 mM MgCl. An assay buffer of 100 mM Tris-HCl, pH 7.4, 20 mM KCl, 6 mM MgCl2 may also be used. Stored at 4° C. • 2. 0.0812% (w/v) malachite green (Sigma M 9636). Stored at room temperature. • 3. 2.32% (w/v) polyvinyl alcohol USP (Sigma P 1097). Stored at room temperature. The polyvinyl alcohol dissolves in boiling water with difficulty and stirring for 2-3 h is required • 4. 5.72% (w/v) ammonium molybdate in 6M hydrochloric acid. Stored at room temperature. • 5. […] Stored at room temperature. • 6. ATP, disodium salt, special quality (Boehringer Mannheim 519979). Stored at 4° C. • 7. E. coli expressed yeast HSP90 protein, purified >95% (10) and stored at −80° C. as 10 μl aliquots containing 0.5 mg of protein. Assay Protocol

T3 sequence (P02829 whole entry, the tested form may be a part): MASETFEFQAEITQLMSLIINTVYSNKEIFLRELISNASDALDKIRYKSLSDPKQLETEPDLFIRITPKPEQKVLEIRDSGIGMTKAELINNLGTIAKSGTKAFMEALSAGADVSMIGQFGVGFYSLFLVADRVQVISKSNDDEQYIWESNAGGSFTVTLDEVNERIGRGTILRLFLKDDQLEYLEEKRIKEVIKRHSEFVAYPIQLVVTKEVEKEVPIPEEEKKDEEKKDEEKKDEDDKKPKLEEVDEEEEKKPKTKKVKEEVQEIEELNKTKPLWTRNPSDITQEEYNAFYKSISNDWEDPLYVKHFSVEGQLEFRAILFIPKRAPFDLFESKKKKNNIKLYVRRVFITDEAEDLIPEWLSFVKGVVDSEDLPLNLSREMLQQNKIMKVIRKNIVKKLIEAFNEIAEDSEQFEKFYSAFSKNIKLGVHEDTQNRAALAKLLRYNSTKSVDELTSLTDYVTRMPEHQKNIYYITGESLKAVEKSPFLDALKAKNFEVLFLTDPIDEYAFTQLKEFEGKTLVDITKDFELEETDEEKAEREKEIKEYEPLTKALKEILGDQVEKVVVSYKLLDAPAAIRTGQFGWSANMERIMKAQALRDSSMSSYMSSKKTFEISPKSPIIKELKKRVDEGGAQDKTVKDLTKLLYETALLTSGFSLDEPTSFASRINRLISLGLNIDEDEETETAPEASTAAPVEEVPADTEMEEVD
T1 sequence (P02829 whole entry): as the sequence (P02829 whole entry, the tested form may be a part) above
T2 sequence (P08238 whole entry): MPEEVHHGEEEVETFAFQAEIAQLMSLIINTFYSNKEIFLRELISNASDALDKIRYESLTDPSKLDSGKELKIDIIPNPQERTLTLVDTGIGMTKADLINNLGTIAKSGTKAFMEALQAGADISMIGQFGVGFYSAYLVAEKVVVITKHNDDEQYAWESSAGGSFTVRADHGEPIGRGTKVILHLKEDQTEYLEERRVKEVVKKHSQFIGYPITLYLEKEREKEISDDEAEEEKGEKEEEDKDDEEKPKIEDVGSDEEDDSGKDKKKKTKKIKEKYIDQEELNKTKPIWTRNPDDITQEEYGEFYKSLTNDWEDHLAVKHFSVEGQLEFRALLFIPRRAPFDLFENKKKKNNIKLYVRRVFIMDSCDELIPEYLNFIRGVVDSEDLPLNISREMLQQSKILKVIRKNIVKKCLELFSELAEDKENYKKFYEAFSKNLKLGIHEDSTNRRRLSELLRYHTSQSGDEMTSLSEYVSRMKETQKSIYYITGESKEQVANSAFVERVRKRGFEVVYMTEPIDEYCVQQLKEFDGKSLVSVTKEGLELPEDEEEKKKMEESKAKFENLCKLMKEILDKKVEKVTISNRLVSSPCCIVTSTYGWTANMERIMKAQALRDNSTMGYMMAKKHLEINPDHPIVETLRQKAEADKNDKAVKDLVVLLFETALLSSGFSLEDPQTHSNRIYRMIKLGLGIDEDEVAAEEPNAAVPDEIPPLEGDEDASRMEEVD

## C=CCNC1=C2C[C@@H](C)C[C@H](OC)[C@H](O)[C@@H](C)/C=C(\C)[C@H](OC(N)=O)[C@@H](OC)/C=C\C=C(/C)C(=O)NC(=CC1=O)C2=O [17AAG]
Yeast Hsp90
  Inhibition of yeast HSP90 ATPase activity (in words): potent inhibitors

## C[C@@H]1C[C@H]2O[C@@H]2/C=C\C=C\C(=O)Cc2c(Cl)c(O)cc(O)c2C(=O)O1 [Radicicol, radicicol]
Yeast Hsp90
  Inhibition of yeast HSP90 ATPase activity (in words): potent inhibitors

## Aha1 (YDR214W), full length (from UniProt Q12449)
[1]
  Half maximal activation of Hsp90 (geldanamycin dependent ATPase activity): < 1 µM
[2]
  ATPase activity of human Hsp90 (malachite green assay of inorganic phosphate): 2 fold

## Aha1: Aha1 (YDR214W) protein expressed in E. coli; co-activator stimulating Hsp90 ATPase activity
Human Hsp90
  Increase of the activity of human Hsp90 in the presence of Aha1: approximately 2 fold
Human Hsp90; FIG. 1, ATP 0.6 mM
  Effect on ATPase activity of increasing concentrations of human HSP90 (in words): significantly increase
Hsp90; FIG. 4, text of results, read-out: Aha1 concentration for half maximal activation of Hsp90
  EC50: < 1000 nM

## Hch1: homologue of Aha1, expressed and purified like Aha1
Hsp90
  Effect on Hsp90 ATPase activity (in words): activate Hsp90 ATPase activity, but to a lesser extent than the full length Aha1 polypeptide

B1: N terminal domain of Aha1: truncated Aha1 polypeptide of 162 aa from the N terminal MVVNNP to GNDIQV (protein)
chain: MVVNNPNNWHWVDKNCIGWAKEYFKQKLVGVEAGSVKDKKYAKIKSVSSIEGDCEVNQRKGKVISLFDLKITVLIEGHVDSKDGSALPFEGSINVPEVAFDSEASSYQFDISIFKETSELSEAKPLIRSELLPKLRQIFQQFGKDLLATHGNDIQV
Hsp90
  Effect on Hsp90 ATPase activity (in words): activate Hsp90 ATPase activity, but to a lesser extent than the full length Aha1 polypeptide

B2: C terminal domain of Aha1: truncated Aha1 polypeptide consisting of the remainder of the Aha1 sequence (protein)
chain: PESQVKSNYTRGNQKSSFTEIKDSASKPKKNALPSSTSTSAPVSSTNKVPQNGSGNSTSIYLEPTFNVPSSELYETFLDKQRILAWTRSAQFFNSGPKLETKEKFELFGGNVISELVSCEKDKKLVFHWKLKDWSAPFNSTIEMTFHESQEFHETKLQVKWTGIPVGEEDRVRANFEEYYVRSIKLTFGFGAVL
Hsp90
  Effect on Hsp90 ATPase activity (in words): little or no effect
